From PMC4493910, “Cryo-EM structure of the bacteriophage T4 portal protein assembly at near-atomic resolution” (Nature Communications, 2015)

What was measured:
[1] = biological target: bacteriophage T4 major capsid protein gp23 (bacteriophage T4); assay: cryo-EM structure; purified emptied prolate heads of a gp13 amber mutant in 50 mM Tris pH 7.5, 1 mM MgCl2, 100 mM NaCl; fivefold symmetry, 10 Å; gp20 structure and a gp23 model fitted into the map
[2] = biological target: bacteriophage T4 portal protein gp20, construct gp20-N74 (residues 74–524) (bacteriophage T4) (UniProt P13334); assay: cryo-EM 2D classification of particles; oligomeric states counted in cryo-EM data of purified portals; gp20-N74 after a single gel filtration (narrow 500 μl fraction)
[3] = biological target: bacteriophage T4 portal protein gp20, construct gp20-N74 (residues 74–524) (bacteriophage T4) (UniProt P13334); assay: cryo-EM structure; single particles of gp20-N74 after two gel filtrations, 1 mg/ml in 20 mM Tris-HCl pH 7.8, 400 mM NaCl, 5 mM EDTA, 0.3% octyl-β-glucoside; 12-fold symmetry imposed, 3.6 Å
[4] = biological target: gp20 mutant in which the tunnel loop (residues 377–388) had been deleted (bacteriophage T4); assay: cryo-EM 2D classification of particles; oligomeric states counted in cryo-EM data of purified portals; gp20-N74 after a single gel filtration (narrow 500 μl fraction)
[5] = biological target: the molecule itself; assay: cryo-EM structure; purified emptied prolate heads of a gp13 amber mutant in 50 mM Tris pH 7.5, 1 mM MgCl2, 100 mM NaCl; fivefold symmetry, 10 Å; gp20 structure and a gp23 model fitted into the map

## bacteriophage T4 major capsid protein gp23 (natural protein)
[1]
  stoichiometry N: 6

## bacteriophage T4 portal protein gp20, construct gp20-N74 (residues 74–524) (from UniProt P13334 74-524) (domain or fragment)
[2]
  percent of particles that are 11-mers: 0.1%
  percent of particles that are 12-mers: 90%
  percent of particles that are 13-mers: 9.9%
[3]
  percent of particles that are 12-mers: 95%
  percent of particles that are 13-mers: 5%
  stoichiometry N: 12

## gp20 mutant in which the tunnel loop (residues 377–388) had been deleted (domain or fragment)
[4]
  percent of particles that are 11-mers: 28%
  percent of particles that are 13-mers: 4%

B1: bacteriophage T4 vertex protein gp24 (natural protein, UniProt P19896 11-427, looked up)
chain: STTTNSNSIGRPNLVALTRATTKLIYSDIVATQRTNQPVAAFYGIKYLNPDNEFTFKTGATYAGEAGYVDREQITELTEESKLTLNKGDLFKYNNIVYKVLEDTPFATIEESDLELALQIAIVLLKVRLFSDAASTSKFESSDSEIADARFQINKWQTAVKSRKLKTGITVELAQDLEANGFDAPNFLEDLLATEMADEINKDILQSLITVSKRYKVTGITDSGFIDLSYASAPEAGRSLYRMVCEMVSHIQKESTYTATFCVASARAAAILAASGWLKHKPEDDKYLSQNAYGFLANGLPLYCDTNSPLDYVIVGVVENIGEKEIVGSIFYAPYTEGLDLDDPEHVGAFKVVVDPESLQPSIGLLVRYALSANPYTVAKDEKEARIIDGGDMDKMAGRSDLSVLLGVKLPKIIIDE
notes: capsid vertex protein gp24 of bacteriophage T4, as present in fully expanded heads; source: emptied prolate heads of a T4 gp13 amber mutant, purified
[5]
  stoichiometry N: 5
